Target: B/Florida/04/06 full-length HA protein produced from baculovirus in Spodoptera frugiperda insect cells (influenza B virus B/Florida/04/06)
Test: SEC

Substance: B/Florida/04/06 full-length HA protein produced from baculovirus in Spodoptera frugiperda insect cells (natural protein)
- stoichiometry N: > 9 HA monomers
